How the values were obtained:
[1] = molecular target: T1, mature human CD123 His-II tagged Fc-fusion protein (human); test: Biacore
T1 construct: also called huCD123; CD123-Fc-His
Method: Cytotoxic effects of the CODV-Fab-TL1-RF “hz20G6×hz7G3”, CODV-Fab-OL1 “hz20G6×hz7G3” and the single chain DART MGD006 were assessed. Affinities to the CD3ε/δ-complex and CD123 of each bispecific construct were measured by Biacore. Furthermore, a cytotoxic assay was performed as described in 2.8 (table 3).
Binding affinities of CODV antibody-like binding proteins to human CD3ε/δ and human CD123 were measured by surface plasmon resonance (SPR) using a Biacore3000 or Biacore T200 instrument (GE Healthcare) with HBS-EP (GE Healthcare) as assay buffer). Capture of CD3ε/δ-Fc or CD123-Fc-His fusion proteins was achieved using the His capture kit (GE Healthcare). The capture antibody was coupled to CM5 chips (GE Healthcare) to approx. 12.000 RU using the amine coupling kit (BR-100-50, GE Healthcare). The CD3εδ-Fc or CD123-Fc-His fusion proteins were captured at 10 μl/min to yield Rmax values of 30 RU. Binding kinetics with the CODV antibody-like binding proteins was measured at 30 μl/min Twofold dilutions of CODV antibody-like binding proteins from 3 to 200 nM in assay buffer were used. All Fab concentrations were run in duplicate together with duplicate buffer blanks for double referencing. Regeneration of the capture surface was performed with a 1 min injection of 10 mM Glycine pH1.5 at 30 μl/min. For data analysis the BIAevaluation software (GE Healthcare) was used. […]

[2] = molecular target: T2, CD123 on THP-1 target cells (UniProt P26951 19-378); test: cell-based or functional assay
T2 sequence (P26951 19-378): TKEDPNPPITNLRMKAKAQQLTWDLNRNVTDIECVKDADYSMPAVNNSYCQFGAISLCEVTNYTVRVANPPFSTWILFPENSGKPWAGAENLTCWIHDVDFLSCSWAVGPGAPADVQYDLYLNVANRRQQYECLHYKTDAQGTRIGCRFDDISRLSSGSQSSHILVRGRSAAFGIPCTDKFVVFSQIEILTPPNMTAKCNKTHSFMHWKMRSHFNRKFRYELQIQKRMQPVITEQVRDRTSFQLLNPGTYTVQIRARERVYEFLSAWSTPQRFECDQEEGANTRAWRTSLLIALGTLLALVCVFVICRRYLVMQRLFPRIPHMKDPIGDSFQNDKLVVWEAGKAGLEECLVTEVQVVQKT

[3] = molecular target: T2, CD123 on THP-1 target cells; test: cell-based or functional assay; remark: listed apart in the source
[4] = molecular target: T2, CD123 on THP-1 target cells; test: cell-based or functional assay; remark: listed apart in the source
[5] = molecular target: T2, CD123 on THP-1 target cells; test: cell-based or functional assay; remark: listed apart in the source
[6] = molecular target: T2, CD123 on THP-1 target cells; test: cell-based or functional assay; remark: listed apart in the source
[7] = molecular target: T1, mature human CD123 His-II tagged …; test: SPR (Biacore), CD123-Fc-His captured with His capture kit, CODV as analyte, 1:1 Langmuir with mass transfer
Method: Binding affinities of CODV antibody-like binding proteins to human CD3ε/δ and human CD123 were measured by surface plasmon resonance (SPR) using a Biacore3000 or Biacore T200 instrument (GE Healthcare) with HBS-EP (GE Healthcare) as assay buffer). Capture of CD3ε/δ-Fc or CD123-Fc-His fusion proteins was achieved using the His capture kit (GE Healthcare). The capture antibody was coupled to CM5 chips (GE Healthcare) to approx. 12.000 RU using the amine coupling kit (BR-100-50, GE Healthcare). The CD3εδ-Fc or CD123-Fc-His fusion proteins were captured at 10 μl/min to yield Rmax values of 30 RU. Binding kinetics with the CODV antibody-like binding proteins was measured at 30 μl/min Twofold dilutions of CODV antibody-like binding proteins from 3 to 200 nM in assay buffer were used. All Fab concentrations were run in duplicate together with duplicate buffer blanks for double referencing. Regeneration of the capture surface was performed with a 1 min injection of 10 mM Glycine pH1.5 at 30 μl/min. For data analysis the BIAevaluation software (GE Healthcare) was used. Data were fit globally using a 1:1 Langmuir model with mass transfer.

[8] = molecular target: T2, CD123 on THP-1 target cells; test: cell-based or functional assay; remark: listed apart in the source
[9] = molecular target: T2, CD123 on THP-1 target cells; test: cell-based or functional assay; remark: listed apart in the source

T1 sequence (chain, as listed by the source limits assumed): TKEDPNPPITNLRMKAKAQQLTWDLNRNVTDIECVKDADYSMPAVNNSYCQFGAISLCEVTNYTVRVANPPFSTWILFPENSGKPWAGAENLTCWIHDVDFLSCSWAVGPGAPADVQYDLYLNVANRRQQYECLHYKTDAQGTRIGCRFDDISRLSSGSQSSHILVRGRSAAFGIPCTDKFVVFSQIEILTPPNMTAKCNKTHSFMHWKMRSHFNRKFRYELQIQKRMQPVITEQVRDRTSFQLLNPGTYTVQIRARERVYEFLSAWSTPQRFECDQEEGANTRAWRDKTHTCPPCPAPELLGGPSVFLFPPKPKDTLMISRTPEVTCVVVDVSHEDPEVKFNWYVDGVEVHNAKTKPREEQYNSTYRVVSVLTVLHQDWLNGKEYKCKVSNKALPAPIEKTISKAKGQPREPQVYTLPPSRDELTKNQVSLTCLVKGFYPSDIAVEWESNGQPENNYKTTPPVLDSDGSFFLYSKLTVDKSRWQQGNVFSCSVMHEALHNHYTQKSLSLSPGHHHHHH

B1: Single chain antibody DART format MGD006 (CD123xCD3 bi-specific diabody) (bispecific antibody)
chain 1: QAVVTQEPSLTVSPGGTVTLTCRSSTGAVTTSNYANWVQQKPGQAPRGLIGGTNKRAPWTPARFSGSLLGGKAALTITGAQAEDEADYYCALWYSNLWVFGGGTKLTVLGGGGSGGGGEVQLVQSGAELKKPGASVKVSCKASGYTFTDYYMKWVRQAPGQGLEWIGDIIPSNGATFYNQKFKGRVTITVDKSTSTAYMELSSLRSEDTAVYYCARSHLLRASWFAYWGQGTLVTVSSGGCGGGEVAALEKEVAALEKEVAALEKEVAALEK
chain 2: DFVMTQSPDSLAVSLGERVTMSCKSSQSLLNSGNQKNYLTWYQQKPGQPPKLLIYWASTRESGVPDRFSGSGSGTDFTLTISSLQAEDVAVYYCQNDYSYPYTFGQGTKLEIKGGGSGGGGEVQLVESGGGLVQPGGSLRLSCAASGFTFSTYAMNWVRQAPGKGLEWVGRIRSKYNNYATYYADSVKDRFTISRDDSKNSLYLQMNSLKTEDTAVYYCVRHGNFGNSYVSWFAYWGQGTLVTVSSGGCGGGKVAALKEKVAALKEKVAALKEKVAALKE
notes: The two chains are covalently bonded to one another by a disulfide bond; also called single chain DART; CD123xCD3 bispecific DART
- Kd [1]: 0.2 nM
- Jurkat-NFAT-Luc reporter cell activation with THP1 cells, EC50 [2]: 0.37 nM
- T cell activation with THP-1 target cells, CD4+ T cells (% CD69+ cells) EC50 [3]: 0.001 nM
- T cell activation with THP-1 target cells, CD8+ T cells (% CD69+ cells) EC50 [3]: 0.0035 nM
- Cytotoxic assay (THP cells) EC50 [4]: 0.0003 nM

B2: CODV-Fab-TL1-Knob-RFxhole "hz20G6xhz7G3" antibody-like binding protein (bispecific antibody, human IgG1, kappa, L234A L235A)
light: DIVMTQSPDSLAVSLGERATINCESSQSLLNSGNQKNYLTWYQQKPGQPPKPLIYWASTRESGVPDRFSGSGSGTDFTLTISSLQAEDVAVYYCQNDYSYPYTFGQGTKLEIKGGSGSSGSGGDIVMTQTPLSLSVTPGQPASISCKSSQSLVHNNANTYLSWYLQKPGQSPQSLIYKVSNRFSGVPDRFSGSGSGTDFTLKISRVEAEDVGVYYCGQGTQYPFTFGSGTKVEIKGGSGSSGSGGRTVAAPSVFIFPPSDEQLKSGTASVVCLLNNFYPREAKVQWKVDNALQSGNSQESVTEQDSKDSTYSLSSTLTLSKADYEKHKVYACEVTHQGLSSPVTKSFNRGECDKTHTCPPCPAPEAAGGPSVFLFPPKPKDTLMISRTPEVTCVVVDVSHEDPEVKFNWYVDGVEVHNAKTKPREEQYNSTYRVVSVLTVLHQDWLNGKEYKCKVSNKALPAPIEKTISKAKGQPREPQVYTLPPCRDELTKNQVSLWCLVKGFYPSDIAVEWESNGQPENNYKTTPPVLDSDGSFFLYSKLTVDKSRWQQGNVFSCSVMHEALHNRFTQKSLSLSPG
heavy: QVQLVESGGGVVQPGRSLRLSCAASGFTFTKAWMHWVRQAPGKQLEWVAQIKDKSNSYATYYADSVKGRFTISRDDSKNTLYLQMNSLRAEDTAVYYCRGVYYALSPFDYWGQGTLVTVSSEVQLVQSGAEVKKPGESLKISCKGSGYSFTDYYMKWARQMPGKGLEWMGDIIPSSGATFYNQKFKGQVTISADKSISTTYLQWSSLKASDTAMYYCARSHLLRASWFAYWGQGTMVTVSSASTKGPSVFPLAPSSKSTSGGTAALGCLVKDYFPEPVTVSWNSGALTSGVHTFPAVLQSSGLYSLSSVVTVPSSSLGTQTYICNVNHKPSNTKVDKKVEPKSCDKTHTCPPCPAPEAAGGPSVFLFPPKPKDTLMISRTPEVTCVVVDVSHEDPEVKFNWYVDGVEVHNAKTKPREEQYNSTYRVVSVLTVLHQDWLNGKEYKCKVSNKALPAPIEKTISKAKGQPREPQVCTLPPSRDELTKNQVSLSCAVKGFYPSDIAVEWESNGQPENNYKTTPPVLDSDGSFFLVSKLTVDKSRWQQGNVFSCSVMHEALHNHYTQKSLSLSPG
notes: CODV-Fab-TL format; IgG1 backbone with LALA mutation
- T-cell Activation with THP-1 target cells, CD4+/CD69+ EC50 (pM) GMean [5]: 0.7 pM
- T-cell Activation with THP-1 target cells, CD8+/CD69+ EC50 (pM) GMean [5]: 1.2 pM
- Activity - CD8+/CD69+ % Activation C = 100 nM Mean (with THP-1 target cells) [6]: 68%
- Kd [7]: 0.215 nM
- koff [7]: 0.000102 s⁻¹
- kon [7]: 474000 M⁻¹ s⁻¹
- Activity - CD4+/CD69+ % Activation C = 100 nM Mean (with THP-1 target cells) [8]: 63%
- flow cytometry based cytotoxic assay, EC50 (pM) GMean [9]: 0.8 pM

B3: CODV-Fab-TL1-Knobxhole-RF "hz20G6xhz7G3" antibody-like binding protein (bispecific antibody, human IgG1, kappa, L234A L235A)
light: not shown
heavy: QVQLVESGGGVVQPGRSLRLSCAASGFTFTKAWMHWVRQAPGKQLEWVAQIKDKSNSYATYYADSVKGRFTISRDDSKNTLYLQMNSLRAEDTAVYYCRGVYYALSPFDYWGQGTLVTVSSEVQLVQSGAEVKKPGESLKISCKGSGYSFTDYYMKWARQMPGKGLEWMGDIIPSSGATFYNQKFKGQVTISADKSISTTYLQWSSLKASDTAMYYCARSHLLRASWFAYWGQGTMVTVSSASTKGPSVFPLAPSSKSTSGGTAALGCLVKDYFPEPVTVSWNSGALTSGVHTFPAVLQSSGLYSLSSVVTVPSSSLGTQTYICNVNHKPSNTKVDKKVEPKSCDKTHTCPPCPAPEAAGGPSVFLFPPKPKDTLMISRTPEVTCVVVDVSHEDPEVKFNWYVDGVEVHNAKTKPREEQYNSTYRVVSVLTVLHQDWLNGKEYKCKVSNKALPAPIEKTISKAKGQPREPQVCTLPPSRDELTKNQVSLSCAVKGFYPSDIAVEWESNGQPENNYKTTPPVLDSDGSFFLVSKLTVDKSRWQQGNVFSCSVMHEALHNRFTQKSLSLSPG
notes: as for B2
- T-cell Activation with THP-1 target cells, CD4+/CD69+ EC50 (pM) GMean [5]: 0.9 pM
- T-cell Activation with THP-1 target cells, CD8+/CD69+ EC50 (pM) GMean [5]: 1.6 pM
- Activity - CD8+/CD69+ % Activation C = 100 nM Mean (with THP-1 target cells) [6]: 70%
- Kd [7]: 0.193 nM
- koff [7]: 8.42e-05 s⁻¹
- kon [7]: 437000 M⁻¹ s⁻¹
- Activity - CD4+/CD69+ % Activation C = 100 nM Mean (with THP-1 target cells) [8]: 64%
- flow cytometry based cytotoxic assay, EC50 (pM) GMean [9]: 1.1 pM

B4: CODV-Fab-TL1-RF "hz20G6xhz7G3" antibody-like binding protein (bispecific antibody, human IgG1, kappa, L234A L235A)
light: DIVMTQSPDSLAVSLGERATINCESSQSLLNSGNQKNYLTWYQQKPGQPPKPLIYWASTRESGVPDRFSGSGSGTDFTLTISSLQAEDVAVYYCQNDYSYPYTFGQGTKLEIKGGSGSSGSGGDIVMTQTPLSLSVTPGQPASISCKSSQSLVHNNANTYLSWYLQKPGQSPQSLIYKVSNRFSGVPDRFSGSGSGTDFTLKISRVEAEDVGVYYCGQGTQYPFTFGSGTKVEIKGGSGSSGSGGRTVAAPSVFIFPPSDEQLKSGTASVVCLLNNFYPREAKVQWKVDNALQSGNSQESVTEQDSKDSTYSLSSTLTLSKADYEKHKVYACEVTHQGLSSPVTKSFNRGECDKTHTCPPCPAPEAAGGPSVFLFPPKPKDTLMISRTPEVTCVVVDVSHEDPEVKFNWYVDGVEVHNAKTKPREEQYNSTYRVVSVLTVLHQDWLNGKEYKCKVSNKALPAPIEKTISKAKGQPREPQVYTLPPSRDELTKNQVSLTCLVKGFYPSDIAVEWESNGQPENNYKTTPPVLDSDGSFFLYSKLTVDKSRWQQGNVFSCSVMHEALHNRFTQKSLSLSPG
heavy: not shown
notes: Anti-CD3 (hz20G6) x anti-CD123 (hz7G3) in the CODV-Fab-TL format; IgG1 backbone with LALA mutation; also called hz20G6xhz7G3 CODV-Fab-TL1-RF; PB05126
- T-cell Activation with THP-1 target cells, CD4+/CD69+ EC50 (pM) GMean [5]: 0.5 pM
- T-cell Activation with THP-1 target cells, CD8+/CD69+ EC50 (pM) GMean [5]: 0.7 pM
- Kd [1]: 0.2 nM
- Activity - CD8+/CD69+ % Activation C = 100 nM Mean (with THP-1 target cells) [6]: 78%
- Kd [7]: 0.339 nM
- koff [7]: 0.000104 s⁻¹
- kon [7]: 308000 M⁻¹ s⁻¹
- Jurkat-NFAT-Luc reporter cell activation with THP1 cells, EC50 [2]: 0.444 nM
- T cell activation with THP-1 target cells, CD4+ T cells (% CD69+ cells) EC50 [3]: 0.0032 nM
- T cell activation with THP-1 target cells, CD8+ T cells (% CD69+ cells) EC50 [3]: 0.0099 nM
- Activity - CD4+/CD69+ % Activation C = 100 nM Mean (with THP-1 target cells) [8]: 75%
- Cytotoxic assay (THP cells) EC50 [4]: 0.001 nM
- flow cytometry based cytotoxic assay, EC50 (pM) GMean [9]: 0.8 pM
